Assay results published in US6596261B1, “Method of administering a medicinal aerosol formulation” (Aeropharm Technology Incorporated, priority 2000, dated 2003).
Ends that are not written are not given here.

Test: Pharmacokinetics of amylin in rabbits after intravenous versus intrapulmonary administration
Assay type: in vivo, New Zealand rabbits
Settings: for Vd: average of six; for Ke: elimination rate constant; for K12: rate constant central to peripheral compartment; for K21: rate constant peripheral to central compartment
Excerpt: The table listed below discloses the average measured results
Referring to FIG. 2, the experimental results obtained were compared to the results calculated using formulae (I) through (VI). The calculated data is totally consistent with the experimental data of this EXAMPLE.

[1] = Intrapulmonary Administration, dose: 7.5 μg/kg
[2] = Intravenous Administration, dose: 5.0 μg/kg

## amylin (KCNTATCATQRLANFLVHSSNNFGAILSSTNVGSNTY; not fully specified (C-terminus, bridges); cysteine pairing not given here; UniProt P10997 34-70, looked up) [β-cell hypoglycemic medicament; natural, synthetic, semi-synthetic or recombinant amylin or amylin analogs]
[1]
  AUC (Area under the blood concentration time course curve): 16.9670 ng·min/mL
  F (Bioavalability), Percent of administered drug absorbed from the lung dose: 24.9%
  T1/2 (Half life of the drug in the body): 26.3819 min
  Vd: 63.0911 L
  Ke: 0.02627 min⁻¹
  K12: 0.03211 min⁻¹
  K21: 0.01774 min⁻¹
[2]
  AUC (Area under the blood concentration time course curve): 45.4016 ng·min/mL
  T1/2 (Half life of the drug in the body): 17.1771 min
  Vd: 9.5246 L
  Ke: 0.0403 min⁻¹
  K12: 0.0180 min⁻¹
  K21: 0.0075 min⁻¹
